Data: PMC7294595

Target: flu-pTyr (gp130-derived phosphopeptide) (Homo sapiens)

B1: STAT3 127-711, P40763 (protein)
chain: GQANHPTAAVVTEKQQMLEQHLQDVRKRVQDLEQKMKVVENLQDDFDFNYKTLKSQGDMQDLNGNNQSVTRQKMQQLEQMLTALDQMRRSIVSELAGLLSAMEYVQKTLTDEELADWKRRQQIACIGGPPNICLDRLENWITSLAESQLQTRQQIKKLEELQQKVSYKGDPIVQHRPMLEERIVELFRNLMKSAFVVERQPCMPMHPDRPLVIKTGVQFTTKVRLLVKFPELNYQLKIKVCIDKDSGDVAALRGSRKFNILGTNTKVMNMEESNNGSLSAEFKHLTLREQRCGNGGRANCDASLIVTEELHLITFETEVYHQGLKIDLETHSLPVVVISNICQMPNAWASILWYNMLTNNPKNVNFFTKPPIGTWDQVAEVLSWQFSSTTKRGLSIEQLTTLAEKLLGPGVNYSGCQITWAKFCKENMAGKGFSFWVWLDNIIDLVKKYILALWNEGYIMGFISKERERAILSTKPPGTFLLRFSESSKEGGVTFTWVEKDISGKTQIQSVEPYTKQQLNNMSFAEIIMGYKIMDATNILVSPLVYLYPDIPKEEAFGKYCRPESQEHPEADPGSAAPYLKTKFI
Q: Which Kd does the source give for B1 here?
A: Its Kd is 60 nM.
